Results on 16 sequences are retold here after the nanobody polyreactivity screen of Harvey et al. (2022).

A short description of this data set: yeast display, Sf9 membrane polyspecificity reagent, FACS + sequencing; frameworks hold sequencing errors. In short, it runs like this:
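Synthetic nanobody libraries on Saccharomyces cerevisiae BJ5465 were galactose-induced for 36–48 hours, stained 1 hour at 4 °C with 10% biotinylated, detergent-solubilized Sf9 membrane reagent and enriched on streptavidin microbeads. FACS then separated cells into low and high (top ~1%) gates by anti-HA (expression) and streptavidin (reagent binding) fluorescence. Genes were colony-PCR amplified, MiSeq 2 × 250 sequenced and CDR-length filtered. A clone's polyreactivity label is that of its gate of origin.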
As for “QVQLVESGGGLVQAGGSLRLSCAASGFTFNDNAMGWYRQAPGKERELVAAITYGGSTYYADSVKGRFTISRDNAKNTVYLQMNSLKPEDTAVYYCARDLSAGPGRDYWGQGTQVTVSS”, the “polyreactivity (PSR sort gate)” value is reported as “low polyreactivity”.

For “QVQHVESGGGLVQAGGSLRLSCAASGSIFPDNAMGWYRQAPGQERELVAAIDKGTGSTNYADSVTGRFTLSRDNAKNNVYFQMNSLKPEDTAVYYCAKGWLTPRGGAWYDDYWGQGTHVTVSS”, the “polyreactivity (PSR sort gate)” value is “low polyreactivity”. The entry for “QCQREESGGGLVQAGGRLRLSCAASGLILIYYAMGWYRQAPGKERELVAAITSSGGSTYYADSVKGRFTISRDNAKNTVYLQMNSLKREDTAVYYCAAYYSGDGYYWGQGTQVTVSS” is “high polyreactivity”. Take “QVQLVESGGGLLQAGGSLRLSCAASGFNFGRYAMGWYRQAPGKERELVATISRSGGSTYYADSVKGRFTISRDNSKNTVFLQMNSLKPEDTAVYYCNALILPTKMGYWGQGTQVTVSS”: the “polyreactivity (PSR sort gate)” value is recorded as “low polyreactivity”. In the case of “QVQLVESGGALVQAGGSLRLSCAASGFTFTINDMGWYRQAPGKERELVATINDSAGSTYYADSVKGRFTISRDNAKNTVYLQMNSQKPDATAVYYCNAYKATRWFEYVYWGQGTQVTVSS” it was “low polyreactivity”.

As to “QVQLEESGGGLVQAGGSLRLSCAASGYTSLYYGMGWYRQAPGKERELVASISRGGSTYADSVKGRFTISRDNAKNTVYLLMNRLKPEDTAVYYCNADGGWDDPWSGWVEYDYWGQGTQVTGSS”, the “polyreactivity (PSR sort gate)” value is given as “low polyreactivity”. The entry for “QVQLVESGGGLVQAGGSLRLSCAASGSIFYWYAMGWYRPAPGKERELVAAITSSSGRTRYADSVKGRFTISRDNAKNTVYLQMNSLKPEDTAVYYCAAGRWGSYYTPRPYGYWGQGTQVTVSS” is “high polyreactivity”; for “QVQLVESGGGLVQAGGSLRLSCAASGSTLLTYTMGWYRQAPGKERELVASITTSGGSTYADSVKGRFTISRDNAKNTVYLQLNSLKPEDTAVYYCAALYLWYSYHVVYQYDYWGQGTQVTVSS” it is “low polyreactivity”; for “QVQLVESGGGLVQAGGSLRLSCAASGIIFKGYDMGWYRQAPGKERELVAAISSGSTNYADSVKGRFTISRDNAKNTVYLQMNSLKPEDTAVYYCAAYNDTVPSAAHIYESWGQGTQVTVSS” it is “low polyreactivity”. The entry for “QVQLVESGGGLVQEGGSLRLSCAASGSTFPLYTMGWYRQAPGKERELVATISRGGSTYYADSVKGRFTISRDNAKNTVYLQMNSLKPEDTAVYYCAARPFGFKFDYWGQGTQVTVSA” is “low polyreactivity”; for “QVQLVESGGGLVQAGGSLRLSCAASGSIFGRYAMGWYRQAPGKERELVAAITFTGGSTYYADSVKGRFTISRDNAKNTVYLQMNSLKPEDTAVYYCAARSLFYRGYGYWGQGTQVTVSS” it is “high polyreactivity”. The entry for “QVQLVESGGGLVQAGGSLRLSCAASGRIFWRYAMGWYRQAPGKERELVAAISSGGSTTYADSVKGRFTISRDNAKNTVYLQMNSLKPEDTAVYYCNARQYTRPYAFDYWGQGTQVTVSS” is “low polyreactivity”. Consider “QVQLVESVGGLVQAGGSLRLSCAASGRIFGGYALGWYRQAPGKERELVAAITSSGSTNYADSVKGRFTISRDNAMNTVYLQMNSLKQEDTAVYYCANDFKTVYYWWGMDYWGQGTQVTVSS”, for which the “polyreactivity (PSR sort gate)” value was “low polyreactivity”.

For the sequence “QVQLVESGGGLVQAGGSLPLSCAASGSIVTDNAMGWYRQAPGKERELVAANTSSGNTNYADSVKGRFTISRDNAKNTVDLQMKSLKPEDTAVYYCAADSYYTHWTDWLPVGEDYWGQVTQVTVSS”, the “polyreactivity (PSR sort gate)” value is on record as “low polyreactivity”. In the case of “QVQLVESGGGLVQAGGSLRLSCAASGSTFDSNVMGWYRQAPGKEWELVAAISIGDSTNYADSVKGRFTISRDNAKKTVYLQMNSLKPEDTAVYSCNATYSRGGYWYFGFDWGQGTQVTVSS” it was “low polyreactivity”; in that of “QVQLVESGGGVVQAGGSLRLSCAASRRTFTYYDMGWYRQAPGKERELVAGITARGGSTYADSVKGRFTISRDNAKNTVYLQMNSLKPEDTAVYYCAADLYTSLDSTYVYWGQGTQVTLSS”, “low polyreactivity”.
